The results in this text go back to paper doi:10.1101/545814 (bioRxiv, 2019).

The chains are these.
T1: MBP-Epe1 (wild-type, recombinant, full length) (S. pombe, UniProt O94603 1-948)
T1 sequence: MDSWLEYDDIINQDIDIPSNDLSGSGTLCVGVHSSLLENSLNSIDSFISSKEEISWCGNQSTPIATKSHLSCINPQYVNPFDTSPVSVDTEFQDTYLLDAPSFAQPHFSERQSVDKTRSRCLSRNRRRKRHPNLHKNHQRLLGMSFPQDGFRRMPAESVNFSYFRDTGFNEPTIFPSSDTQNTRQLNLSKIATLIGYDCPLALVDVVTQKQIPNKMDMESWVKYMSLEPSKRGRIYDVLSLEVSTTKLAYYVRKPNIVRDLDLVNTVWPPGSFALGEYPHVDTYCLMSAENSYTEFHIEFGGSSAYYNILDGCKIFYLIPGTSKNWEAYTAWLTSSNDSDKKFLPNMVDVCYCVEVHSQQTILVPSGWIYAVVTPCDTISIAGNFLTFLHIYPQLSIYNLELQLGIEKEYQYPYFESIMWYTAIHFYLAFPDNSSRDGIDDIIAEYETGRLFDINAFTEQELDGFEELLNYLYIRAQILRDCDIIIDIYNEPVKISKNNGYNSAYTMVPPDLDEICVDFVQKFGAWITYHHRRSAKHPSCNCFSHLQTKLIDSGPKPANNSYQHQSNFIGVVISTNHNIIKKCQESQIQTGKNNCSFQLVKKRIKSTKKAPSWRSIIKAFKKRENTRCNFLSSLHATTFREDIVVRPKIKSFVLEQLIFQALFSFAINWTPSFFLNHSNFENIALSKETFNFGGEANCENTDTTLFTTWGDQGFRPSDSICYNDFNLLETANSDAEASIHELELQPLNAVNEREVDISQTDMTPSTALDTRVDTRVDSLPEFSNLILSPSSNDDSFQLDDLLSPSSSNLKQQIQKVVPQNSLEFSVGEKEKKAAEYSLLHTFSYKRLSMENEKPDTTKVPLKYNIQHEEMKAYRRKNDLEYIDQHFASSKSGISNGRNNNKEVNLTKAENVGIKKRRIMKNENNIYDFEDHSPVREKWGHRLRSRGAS

T2: MBP-Epe1^434-948 (S. pombe, UniProt O94603 434-948)
T2 sequence: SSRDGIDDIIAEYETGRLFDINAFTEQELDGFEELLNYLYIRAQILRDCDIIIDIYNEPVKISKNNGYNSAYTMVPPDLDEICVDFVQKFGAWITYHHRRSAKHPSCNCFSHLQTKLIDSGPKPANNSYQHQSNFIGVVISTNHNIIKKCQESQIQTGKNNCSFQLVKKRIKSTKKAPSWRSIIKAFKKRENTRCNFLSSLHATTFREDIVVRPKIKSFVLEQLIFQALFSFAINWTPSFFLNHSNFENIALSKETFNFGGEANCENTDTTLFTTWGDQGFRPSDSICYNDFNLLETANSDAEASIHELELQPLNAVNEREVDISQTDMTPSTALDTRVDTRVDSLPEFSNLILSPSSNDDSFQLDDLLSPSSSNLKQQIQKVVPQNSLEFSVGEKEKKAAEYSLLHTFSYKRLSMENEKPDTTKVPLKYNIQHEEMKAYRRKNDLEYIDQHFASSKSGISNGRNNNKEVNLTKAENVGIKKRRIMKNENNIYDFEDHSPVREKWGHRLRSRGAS

B1: 3X-FLAG Swi6^HP1 W104A (natural protein)
chain: MKKGGVRSYRRSSTSKRSVIDDDSEPELPSMTKEAIASHKADSGSSDNEVESDHESKSSSKKLKENAKEEEGGEEEEEDEYVVEKVLKHRMARKGGGYEYLLKAEGYDDPSDNTWSSEADCSGCKQLIEAYWNEHGGRPEPSKRKRTARPKKPEAKEPSPKSRKTDEDKHDKDSNEKIEDVNEKTIKFADKSQEEFNENGPPSGQPNGHIESDNESKSPSQKESNESEDIQIAETPSNVTPKKKPSPEVPKLPDNRELTVKQVENYDSWEDLVSSIDTIERKDDGTLEIYLTWKNGAISHHPSTITNKKCPQKMLQFYESHLTFRENE
B2: 3X FLAG-Swi6^HP1 (recombinant, E. coli) (natural protein)
chain: B1 chain with A104W
B3: 3X FLAG-Swi6^HP1 purified from fission yeast cells (natural protein)
chain: B1 chain with A104W
B4: MBP-Epe1^434-600 (domain or fragment)
chain: SSRDGIDDIIAEYETGRLFDINAFTEQELDGFEELLNYLYIRAQILRDCDIIIDIYNEPVKISKNNGYNSAYTMVPPDLDEICVDFVQKFGAWITYHHRRSAKHPSCNCFSHLQTKLIDSGPKPANNSYQHQSNFIGVVISTNHNIIKKCQESQIQTGKNNCSFQLV

Holding throughout (assay): pull-down
Test [1] deals with T1, MBP-Epe1 (wild-type, recombinant, full …).
For the next test, the target named is T2, MBP-Epe1^434-948.
In test [2] the target is B2.

Residue numbers refer to the chain shown, from its start. Numbers in names are those of the source.

As to B1, the binding result in test [1] is on record as “binds”.
For B2, the binding result (with MBP-Epe1^434-948; in test [1]) was “binds” in each case.
For the molecule B3, in test [1], the binding result is listed as “binds”.
In the case of B4, in test [2], the binding result is “binds”.
